B1: MX1021 (bispecific antibody)
chain: QTVVTQEPSFSVSPGGTVTLTCGLSSGSVSTAYFPSWYQQTPGQAPRTLIYGTNTRSSGVPDRFSGSILGNKAALTITGAQADDESDYYCVLYMGRGIVVFGGGTKLTVLGGSSGEIVMTQSPAILSVSPGERATLSCRASQSVAINLAWYQQKPGQAPRLLIYAASSRATGIPGRFSGSGSETNFTLTISSLQSGDFAVYYCQQYITWPPSYTFGQGTKLEIKGGGGSGGSGSGGGGSASGSGEVQLVESGGALIQPGGSLRLSCAASGIIVSANYMSWVRQAPGKGLEWVSVIYSGGSTFYADSVKGRFTISRDNSKNTLYLEMNSLRAEDTAVYYCARDAPILGVSDWGQGTLVTVSSGGSSGQVQLVESGGGVVQPGRSLRLSCAASGFTLSSYGMHWVRQAPGKGLEWVAVISYDGSNKYYVDSVKGRFTISRDNSKNTLYLQMNSLRAEDTAVYYCRWAYWELLPDYYYGMDVWGQGTTVTVSSASGGSGDKTHTCPPCPAPELLGGPSVFLFPPKPKDTLMISRTPEVTCVVVDVSHEDPEVKFNWYVDGVEVHNAKTKPREEQYNSYVVSVLTVLHQDWLNGKEYKCKVSNKALPAPIEKTISKAKGQPREPQVYTLPPSRDELTKNQVSLTCLVKGFYPSDIAVEWESNGQPENNYKTTPPVLDSDGSFFKKLTVDKSRWQQGNVFSCSVLHEALHSHYTQKSLSLSPG
B2: MX1022 (bispecific antibody)
chain: DTVMTQSPLSLPVTPGEPASISCRSSQSLLNSNGYNYLDWYVQKPGQSPQLLIYLGSNRASGVPDRFSGSGSGTDFTLKISRVEAEDVGVYYCMQPLQTPLFTFGPGTKVEIKGGSSGEIVMTQSPAILSVSPGERATLSCRASQSVAINLAWYQQKPGQAPRLLIYAASSRATGIPGRFSGSGSETNFTLTISSLQSGDFAVYYCQQYITWPPSYTFGQGTKLEIKGGGGSGGSGSGGGGSASGSGEVQLVESGGALIQPGGSLRLSCAASGIIVSANYMSWVRQAPGKGLEWVSVIYSGGSTFYADSVKGRFTISRDNSKNTLYLEMNSLRAEDTAVYYCARDAPILGVSDWGQGTLVTVSSGGSSGQVTLRESGPALVKPTQTLTLTCTFSGFSLSTRGVCVSWIRQPPGKALEWLAFIDWDDDKYYNTSLKTRLTISKDTSKNQVVLTMTNVHPVDTATYYCARISSHHGSSWCTTFDYWGQGALVTVSAASGGSGDKTHTCPPCPAPELLGGPSVFLFPPKPKDTLMISRTPEVTCVVVDVSHEDPEVKFNWYVDGVEVHNAKTKPREEQYNSYVVSVLTVLHQDWLNGKEYKCKVSNKALPAPIEKTISKAKGQPREPQVYTLPPSRDELTKNQVSLTCLVKGFYPSDIAVEWESNGQPENNYKTTPPVLDSDGSFFKKLTVDKSRWQQGNVFSCSVLHEALHSHYTQKSLSLSPG

Tests used:
Test in all cases: cell-based or functional assay
[1] = biological target: SARS-CoV-2 Omicron variant BQ.1 spike protein (SARS-CoV-2)
[2] = biological target: SARS-CoV-2 Omicron variant BQ.1.1 spike protein (SARS-CoV-2)
[3] = biological target: SARS-CoV-2 Omicron variant BA.4/5 spike protein (SARS-CoV-2)
[4] = biological target: SARS-CoV-2 Omicron variant BA.4.6 spike protein (SARS-CoV-2)
[5] = biological target: SARS-CoV-2 Omicron variant BF.7 spike protein (SARS-CoV-2)
[6] = biological target: SARS-CoV-2 Delta variant spike protein (SARS-CoV-2)
[7] = biological target: SARS-CoV-2 Omicron variant BA.2.75.2 spike protein (SARS-CoV-2)
[8] = biological target: SARS-CoV-2 Omicron variant B.1.1.529 spike protein (SARS-CoV-2)
[9] = biological target: SARS-CoV-2 Omicron variant XBB spike protein (SARS-CoV-2)

Binder	IC50, pseudovirus neutralization [1]	IC80, pseudovirus neutralization [1]	IC50, pseudovirus neutralization [2]	IC80, pseudovirus neutralization [2]	IC50, pseudovirus neutralization [3]	IC80, pseudovirus neutralization [3]	IC50, pseudovirus neutralization [4]	IC80, pseudovirus neutralization [4]	IC50, pseudovirus neutralization [5]	IC80, pseudovirus neutralization [5]	IC50, pseudovirus neutralization [6]	IC80, pseudovirus neutralization [6]	IC50, pseudovirus neutralization [7]	IC80, pseudovirus neutralization [7]	IC50, pseudovirus neutralization [8]	IC80, pseudovirus neutralization [8]	IC50, pseudovirus neutralization [9]	IC80, pseudovirus neutralization [9]
B1	0.0113 µg/mL	0.0519 µg/mL	0.00277 µg/mL	0.0285 µg/mL	0.0138 µg/mL	0.026 µg/mL	0.0129 µg/mL	0.0414 µg/mL	0.0113 µg/mL	0.0317 µg/mL	0.0648 µg/mL	0.219 µg/mL	0.00373 µg/mL	0.0132 µg/mL	0.00291 µg/mL	0.0131 µg/mL	0.0147 µg/mL	0.0611 µg/mL
B2	0.00658 µg/mL	0.0192 µg/mL	0.00113 µg/mL	0.00672 µg/mL	0.00198 µg/mL	0.00333 µg/mL	0.0049 µg/mL	0.00882 µg/mL	0.00238 µg/mL	0.00829 µg/mL	0.0315 µg/mL	0.0254 µg/mL	0.00089 µg/mL	0.0028 µg/mL	0.00422 µg/mL	0.00474 µg/mL	0.00585 µg/mL	0.0124 µg/mL

Source: patent US20240109955A1
